Results reported in PMC5389509.
Changes are numbered by the printed parent chain.

T1: YxiN S108C/N444C (UniProt P42305 1-479, C61A;C267A;S108C;N444C)
T1 sequence: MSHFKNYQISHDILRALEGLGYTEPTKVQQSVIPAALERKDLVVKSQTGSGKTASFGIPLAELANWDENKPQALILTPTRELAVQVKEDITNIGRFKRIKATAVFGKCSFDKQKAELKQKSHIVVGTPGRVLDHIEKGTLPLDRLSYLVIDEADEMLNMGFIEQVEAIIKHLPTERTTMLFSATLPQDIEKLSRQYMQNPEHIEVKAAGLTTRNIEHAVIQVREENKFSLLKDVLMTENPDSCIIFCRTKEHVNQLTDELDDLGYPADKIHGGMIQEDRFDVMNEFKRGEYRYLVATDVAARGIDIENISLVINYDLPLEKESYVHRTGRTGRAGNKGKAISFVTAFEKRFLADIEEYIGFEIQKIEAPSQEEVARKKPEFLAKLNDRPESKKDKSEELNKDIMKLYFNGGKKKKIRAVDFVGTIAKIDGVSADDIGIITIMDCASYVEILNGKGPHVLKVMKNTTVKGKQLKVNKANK

T2: YxiN A115C/S229C biotinylated (UniProt P42305 1-479, C61A;C267A;A115C;S229C)
T2 sequence: T1 sequence with C108S, A115C, S229C, C444N

T3: YxiN S108C/S229C (UniProt P42305 1-479, C61A;C267A;S108C;S229C)
T3 sequence: T1 sequence with S229C, C444N

T4: YxiN S108C/N464C (UniProt P42305 1-479, C61A;C267A;S108C;N464C)
T4 sequence: T1 sequence with C444N, N464C

T5: YxiN S108C/D429C (UniProt P42305 1-479, C61A;C267A;S108C;D429C)
T5 sequence: T1 sequence with D429C, C444N


Experiments:
YxiN S108C/N444C [1] = molecular target: T1, YxiN S108C/N444C; assay: fluorescence anisotropy
[2] = molecular target: T2, YxiN A115C/S229C biotinylated; assay: smFRET
YxiN S108C/S229C = molecular target: T3, YxiN S108C/S229C; assay: smFRET
YxiN S108C/N464C = molecular target: T4, YxiN S108C/N464C; assay: smFRET
YxiN S108C/D429C = molecular target: T5, YxiN S108C/D429C; assay: smFRET
YxiN S108C/N444C [3] = molecular target: T1, YxiN S108C/N444C; assay: smFRET

Binder	Kd (YxiN S108C/N444C [1]) [nM]	binding result [2]	binding result (YxiN S108C/S229C)	binding result (YxiN S108C/N464C)	binding result (YxiN S108C/D429C)	binding result (YxiN S108C/N444C [3])
CGAGGUCCCAAGGGUUGGGCUGUUCGCCCAUU (structured_RNA) [32mer (FAM)]	170	–	–	–	–	–
CGAGGUCCCAAGGGUUGGGCUGUUCGCCCAUU (structured_RNA) [32mer]	–	binds	binds	binds	binds	–
UGGGCUGUUCGCCCAU (structured_RNA) [32merHairpin]	–	–	binds	–	–	binds
